Data taken from PMC5103362 (Autophagy, 2016).

T1: Vps15 (WD40Δ) (1 to 981) (S. cerevisiae, UniProt P22219 1-981)
T1 construct: Vps15, yeast (S. cerevisiae), residues 1 to 981, without the WD40 domain; also called Vps15Δ WD40; ScVps15 (WD40Δ)
T1 sequence (looked up): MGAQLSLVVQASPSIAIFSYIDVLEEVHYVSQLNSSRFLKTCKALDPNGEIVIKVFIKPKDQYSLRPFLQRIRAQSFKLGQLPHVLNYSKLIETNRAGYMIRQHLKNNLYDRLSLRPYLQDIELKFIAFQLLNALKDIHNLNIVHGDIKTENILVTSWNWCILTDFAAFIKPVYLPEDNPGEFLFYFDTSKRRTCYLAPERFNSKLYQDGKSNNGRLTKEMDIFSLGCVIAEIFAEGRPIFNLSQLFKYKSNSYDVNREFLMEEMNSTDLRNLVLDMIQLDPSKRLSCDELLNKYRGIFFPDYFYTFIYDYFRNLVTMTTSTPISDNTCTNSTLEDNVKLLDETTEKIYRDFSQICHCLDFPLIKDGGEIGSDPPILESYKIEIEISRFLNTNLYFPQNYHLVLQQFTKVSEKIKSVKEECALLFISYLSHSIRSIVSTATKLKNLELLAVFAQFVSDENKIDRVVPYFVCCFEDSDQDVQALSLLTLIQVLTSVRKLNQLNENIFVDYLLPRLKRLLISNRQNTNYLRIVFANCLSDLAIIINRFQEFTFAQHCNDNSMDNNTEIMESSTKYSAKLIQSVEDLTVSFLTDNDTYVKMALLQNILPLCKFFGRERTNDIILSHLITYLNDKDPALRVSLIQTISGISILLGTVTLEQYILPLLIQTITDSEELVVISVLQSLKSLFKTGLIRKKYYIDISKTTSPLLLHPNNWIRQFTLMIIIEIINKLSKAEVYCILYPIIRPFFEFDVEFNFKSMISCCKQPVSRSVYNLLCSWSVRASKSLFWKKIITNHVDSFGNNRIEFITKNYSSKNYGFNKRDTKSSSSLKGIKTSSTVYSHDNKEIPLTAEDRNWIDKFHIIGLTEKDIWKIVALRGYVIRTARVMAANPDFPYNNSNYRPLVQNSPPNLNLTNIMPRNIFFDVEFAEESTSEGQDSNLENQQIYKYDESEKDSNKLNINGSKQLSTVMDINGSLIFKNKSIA

T2: Vps15, full-length (of the Vps15-Vps34 D731N dimer) (S. cerevisiae, UniProt P22219 1-1454)
T2 construct: Vps15, yeast (S. cerevisiae), full-length; also called ScVps15
T2 sequence (looked up): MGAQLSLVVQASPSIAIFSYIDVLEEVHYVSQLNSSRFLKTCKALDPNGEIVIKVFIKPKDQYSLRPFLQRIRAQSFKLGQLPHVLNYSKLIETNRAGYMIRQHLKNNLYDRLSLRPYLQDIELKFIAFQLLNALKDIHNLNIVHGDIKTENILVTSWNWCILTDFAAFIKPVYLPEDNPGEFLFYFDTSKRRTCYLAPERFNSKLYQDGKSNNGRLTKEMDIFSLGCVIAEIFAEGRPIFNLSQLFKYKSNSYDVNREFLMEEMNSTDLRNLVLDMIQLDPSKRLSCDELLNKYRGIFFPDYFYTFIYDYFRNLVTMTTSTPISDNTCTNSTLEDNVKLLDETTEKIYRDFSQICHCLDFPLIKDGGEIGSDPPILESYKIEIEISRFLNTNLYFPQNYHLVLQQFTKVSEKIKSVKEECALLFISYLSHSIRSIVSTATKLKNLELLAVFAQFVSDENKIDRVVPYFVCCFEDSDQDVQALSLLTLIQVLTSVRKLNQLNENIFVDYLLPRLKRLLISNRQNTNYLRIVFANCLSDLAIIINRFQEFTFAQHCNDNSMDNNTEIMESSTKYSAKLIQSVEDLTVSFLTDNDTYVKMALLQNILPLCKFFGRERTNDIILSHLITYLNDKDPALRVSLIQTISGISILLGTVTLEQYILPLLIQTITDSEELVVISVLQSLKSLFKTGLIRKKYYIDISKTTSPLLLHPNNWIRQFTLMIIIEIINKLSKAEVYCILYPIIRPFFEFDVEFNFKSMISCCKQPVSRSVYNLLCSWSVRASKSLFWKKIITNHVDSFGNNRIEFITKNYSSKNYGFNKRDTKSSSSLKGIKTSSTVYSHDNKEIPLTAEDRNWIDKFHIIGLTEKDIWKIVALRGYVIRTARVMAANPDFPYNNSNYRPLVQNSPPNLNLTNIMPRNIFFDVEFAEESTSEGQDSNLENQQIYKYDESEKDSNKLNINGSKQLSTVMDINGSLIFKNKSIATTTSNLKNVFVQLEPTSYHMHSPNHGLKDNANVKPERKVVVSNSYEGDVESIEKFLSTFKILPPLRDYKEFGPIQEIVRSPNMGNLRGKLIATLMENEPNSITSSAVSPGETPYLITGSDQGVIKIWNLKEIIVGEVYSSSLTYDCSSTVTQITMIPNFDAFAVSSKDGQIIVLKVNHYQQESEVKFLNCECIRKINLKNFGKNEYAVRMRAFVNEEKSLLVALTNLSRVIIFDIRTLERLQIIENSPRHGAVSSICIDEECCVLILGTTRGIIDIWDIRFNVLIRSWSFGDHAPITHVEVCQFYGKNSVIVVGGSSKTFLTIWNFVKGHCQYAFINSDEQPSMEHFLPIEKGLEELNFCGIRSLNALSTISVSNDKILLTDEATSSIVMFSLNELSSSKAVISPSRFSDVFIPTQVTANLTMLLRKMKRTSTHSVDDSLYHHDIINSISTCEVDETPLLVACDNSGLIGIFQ

T3: Atg14 (subunit of the purified yeast complex I) (S. cerevisiae, UniProt P38270 1-344)
T3 construct: Atg14, S. cerevisiae
T3 sequence (looked up): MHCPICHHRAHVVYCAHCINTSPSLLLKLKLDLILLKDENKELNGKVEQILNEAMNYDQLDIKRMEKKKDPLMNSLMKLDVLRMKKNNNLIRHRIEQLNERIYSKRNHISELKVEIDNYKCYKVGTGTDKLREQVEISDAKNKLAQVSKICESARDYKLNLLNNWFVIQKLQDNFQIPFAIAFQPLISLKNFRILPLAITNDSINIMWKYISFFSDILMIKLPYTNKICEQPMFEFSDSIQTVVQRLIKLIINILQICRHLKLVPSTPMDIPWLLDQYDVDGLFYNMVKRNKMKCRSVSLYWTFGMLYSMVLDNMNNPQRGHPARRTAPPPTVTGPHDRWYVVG

B1: Vps34 D731N (KI) (enzyme, S. cerevisiae, UniProt P22543 1-875, looked up)
chain: MSLNNITFCVSQDLDVPLKVKIKSLEGHKPLLKPSQKILNPELMLIGSNVFPSSDLIVSLQVFDKERNRNLTLPIYTPYIPFRNSRTWDYWLTLPIRIKQLTFSSHLRIILWEYNGSKQIPFFNLETSIFNLKDCTLKRGFESLKFRYDVIDHCEVVTDNKDQENLNKYFQGEFTRLPWLDEITISKLRKQRENRTWPQGTFVLNLEFPMLELPVVFIEREIMNTQMNIPTLKNNPGLSTDLREPNRNDPQIKISLGDKYHSTLKFYDPDQPNNDPIEEKYRRLERASKNANLDKQVKPDIKKRDYLNKIINYPPGTKLTAHEKGSIWKYRYYLMNNKKALTKLLQSTNLREESERVEVLELMDSWAEIDIDDALELLGSTFKNLSVRSYAVNRLKKASDKELELYLLQLVEAVCFENLSTFSDKSNSEFTIVDAVSSQKLSGDSMLLSTSHANQKLLKSISSESETSGTESLPIVISPLAEFLIRRALVNPRLGSFFYWYLKSESEDKPYLDQILSSFWSRLDKKSRNILNDQVRLINVLRECCETIKRLKDTTAKKMELLVHLLETKVRPLVKVRPIALPLDPDVLICDVCPETSKVFKSSLSPLKITFKTTLNQPYHLMFKVGDDLRQDQLVVQIISLMNELLKNENVDLKLTPYKILATGPQEGAIEFIPNDTLASILSKYHGILGYLKLHYPDENATLGVQGWVLDNFVKSCAGYCVITYILGVGNRHLDNLLVTPDGHFFHADFGYILGQDPKPFPPLMKLPPQIIEAFGGAESSNYDKFRSYCFVAYSILRRNAGLILNLFELMKTSNIPDIRIDPNGAILRVRERFNLNMSEEDATVHFQNLINDSVNALLPIVIDHLHNLAQYWRT
B2: Atg38, full-length (natural protein, S. cerevisiae, UniProt Q05789 1-226, looked up)
chain: MSTLAEVYTIIEDAEQECRKGDFTNAKAKYQEAIEVLGPQNENLSQNKLSSDVTQAIDLLKQDITAKIQELELLIEKQSSEENNIGMVNNNMLIGSVILNNKSPINGISNARNWDNPAYQDTLSPINDPLLMSILNRLQFNLNNDIQLKTEGGKNSKNSEMKINLRLEQFKKELVLYEQKKFKEYGMKIDEITKENKKLANEIGRLRERWDSLVESAKQRRDKQKN
notes: also called purified Atg38; free Atg38; source: E. coli, purified (Glutathione Sepharose, TEV, HiTrap Q, S75); not shown: GST, N-terminal, cleaved

Assays:
Vps15 (WD40Δ) (1 to 981) = target: T1, Vps15 (WD40Δ) (1 to 981); experiment: negative-stain EM reconstruction; co-purified yeast Vps15-Vps34 D731N and Vps15 (WD40Δ)-Vps34 D731N dimers, 2% uranyl acetate; 28 Å; conditions: both partners purified
[1] = target: T2, Vps15, full-length (of the Vps15-Vps34 …); experiment: as above; conditions: both partners purified
[2] = target: the molecule itself; experiment: SEC-MALS; Atg38 full-length, MIT domain and deletion variants alone on S75 10/30; 20 mM Tris pH 7.9, 300 mM NaCl, 1 mM TCEP
[3] = target: T4, yeast complex I (Vps15-Vps34-Vps30-Atg14 heterotetramer) (S. cerevisiae, UniProt P22219 1-1454; P22543 1-875; Q02948 1-557; P38270 1-344); experiment: SEC-MALS; purified yeast complex I (co-expressed, co-purified) and gel-filtration purified complex I + Atg38 on S200 10/30; 20 mM Tris pH 8.8, 150 mM NaCl, 1 mM TCEP; conditions: both partners purified
T4 construct: Vps15, S. cerevisiae, subunit of complex I; Vps34, S. cerevisiae, subunit of complex I; Vps30/Atg6, S. cerevisiae, subunit of complex I; Atg14, S. cerevisiae, subunit of complex I; expected mass 379 kDa; also called CI; heterotetrameric S. cerevisiae complex I; copies: 1 + 1 + 1 + 1

[4] = target: T3, Atg14 (subunit of the purified yeast …); experiment: HDX-MS; complex I, free Atg38 and gel-filtered complex I + Atg38; 2.5 µM protein, 20 mM Tris pH 8.0, 50 mM NaCl, 2 mM TCEP, 75% D2O, 3 to 3000 sec at 23°C; conditions: both partners purified
[5] = target: T4, yeast complex I …; experiment: SEC; purified yeast complex I mixed with purified Atg38 at 6:1 or 1:6 molar ratio (8.6 µM complex I with 1.4 or 51.7 µM Atg38), on ice 30 min, S200 10/30; 20 mM Tris pH 8.8, 150 mM NaCl, 0.5 mM TCEP; fractions on SDS-PAGE; conditions: both partners purified

T4 sequence (Q02948 whole entry, one chain of several): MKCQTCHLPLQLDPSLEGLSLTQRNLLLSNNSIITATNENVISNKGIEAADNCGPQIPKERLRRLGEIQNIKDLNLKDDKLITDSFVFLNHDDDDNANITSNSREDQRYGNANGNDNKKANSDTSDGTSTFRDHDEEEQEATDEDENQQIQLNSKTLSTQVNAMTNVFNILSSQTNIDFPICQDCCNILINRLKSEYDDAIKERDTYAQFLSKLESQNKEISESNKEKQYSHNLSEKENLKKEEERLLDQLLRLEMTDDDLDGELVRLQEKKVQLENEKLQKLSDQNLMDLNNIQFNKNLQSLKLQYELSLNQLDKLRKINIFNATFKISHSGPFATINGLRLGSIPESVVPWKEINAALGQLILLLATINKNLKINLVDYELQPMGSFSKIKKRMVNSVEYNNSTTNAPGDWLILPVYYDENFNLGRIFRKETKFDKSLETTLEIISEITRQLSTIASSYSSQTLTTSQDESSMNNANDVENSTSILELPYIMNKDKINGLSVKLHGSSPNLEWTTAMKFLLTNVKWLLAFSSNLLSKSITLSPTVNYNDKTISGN

Binder | binding result (Vps15 (WD40Δ) (1 to 981)) | binding result [1] | stoichiometry N [2] | stoichiometry N [3] | binding result [4] | stoichiometry N [5]
B1 | binds | binds | – | – | – | –
B2 | – | – | 2 | 1 Atg38 homodimer per complex I | binds | 2 Atg38 chains per complex I
